How the values were obtained:
[1] = molecular target: CRT3LP (PASylated CRT-targeted L-ASNase: CRT3 monobody - L-ASNase - PAS200 tag - His6) (E. coli)
[2] = molecular target: CRT4LP (PASylated CRT-targeted L-ASNase: CRT4 monobody - L-ASNase - PAS200 tag - His6) (E. coli)

B1: recombinant calreticulin protein (rCRT) (other)
chain: EPAVYFKEQFLDGDGWTSRWIESKHKSDFGKFVLSSGKFYGDEEKDKGLQTSQDARFYALSASFEPFSNKGQTLVVQFTVKHEQNIDCGGGYVKLFPNSLDQTDMHGDSEYNIMFGPDICGPGTKKVHVIFNYKGKNVLINKDIRCKDDEFTHLYTLIVRPDNTYEVKIDNSQVESGSLEDDWDFLPPKKIKDPDASKPEDWDERAKIDDPTDSKPEDWDKPEHIPDPDAKKPEDWDEEMDGEWEPPVIQNPEYKGEWKPRQIDNPDYKGTWIHPEIDNPEYSPDPSIYAYDNFGVLGLDLWQVKSGTIFDNFLITNDEAYAEEFGNETWGVTKAAEKQMKDKQDEEQRLKEEEEDKKRKEEEEAEDKEDDEDKDEDEEDEEDKEEDEEEDVPGQAKDEL
- Kd [1]: 2.07 nM
- Kd [2]: 2.3 nM
